{
  "source": "patent EP1073891B1",
  "about": "“METHOD OF PREDICTING RECEPTOR MODULATING ACTIVITY” (Duke University, priority 1998, dated 1999)",
  "assay_in_all_cases": "Mammalian two-hybrid with ERα AF-2 mutants (Examples 4.3, 101.3)",
  "type_in_all_cases": "cell-based",
  "conditions_in_all_cases": "mammalian two-hybrid (Fig. 9)",
  "key": {"ER3X (D538N/E542Q/D545N)": {"target": "T1, ER3X (D538N/E542Q/D545N) (Homo sapiens, UniProt P03372, D538N/D545N/E542Q)", "T1 construct": "expressed in transfected cells", "T1 sequence (P03372 1-595 D538N/E542Q/D545N)": "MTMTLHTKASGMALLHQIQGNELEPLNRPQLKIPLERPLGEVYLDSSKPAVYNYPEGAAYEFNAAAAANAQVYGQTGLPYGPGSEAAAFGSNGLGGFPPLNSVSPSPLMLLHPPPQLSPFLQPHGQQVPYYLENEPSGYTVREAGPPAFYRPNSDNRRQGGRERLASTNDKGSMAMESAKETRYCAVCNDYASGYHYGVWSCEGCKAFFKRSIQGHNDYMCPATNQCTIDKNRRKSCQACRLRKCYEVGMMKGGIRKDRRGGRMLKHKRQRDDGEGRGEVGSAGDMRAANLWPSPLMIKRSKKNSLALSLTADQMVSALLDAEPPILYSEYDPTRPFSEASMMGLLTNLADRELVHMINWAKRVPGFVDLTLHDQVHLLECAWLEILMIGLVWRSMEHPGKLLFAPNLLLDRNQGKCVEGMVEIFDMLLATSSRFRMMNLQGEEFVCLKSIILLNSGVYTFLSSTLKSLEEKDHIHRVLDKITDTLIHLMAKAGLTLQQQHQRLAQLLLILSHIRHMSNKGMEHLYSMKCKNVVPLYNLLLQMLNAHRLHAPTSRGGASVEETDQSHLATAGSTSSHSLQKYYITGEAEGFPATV", "excerpt": "(§1) Peptide sequences representing each class was fused to the DNA binding domain (DBD) of the yeast transcription factor Ga14. HepG2 cells were then transiently transfected with expression vectors for ERα-VP16 and the Gal4-peptide fusion proteins. In addition, a luciferase reporter construct under the control of 5 copies of a Ga14 upstream enhancer element was also transfected along with a pCMV-β galactosidase vector to normalize for transfection efficiency. Transfection of the Ga14 DBD alone is included as control. Cells were then induced with various ligands as indicated in the figure and assayed for luciferase activity and β galactosidase activity. Normalized response was obtained by dividing the luciferase activity by the β galactosidase activity.\n(§2) Three ERα mutants were compared with wild-type ERα. ER-LL was characterized by mutations L540A/L541A. Mutant ER3X was characterized by mutations D538N/E542Q/D545N. Finally, mutant ER-535 STOP was truncated after residue V535. […] Experimental design is the same as in figure 7 except that either (A) ER3X (B) ERLL or (C) ER535-stop was analyzed for binding to conformation sensitive peptides.\n(§3) To test whether different LXXLL motif peptides interact within the same region of ER, mammalian two hybrid assays were used. Selected peptide sequences and different ER mutants (ER-LL, ER-3X, ER-535 STOP) were expressed as fusion proteins to Gal4DBD and VP16 (TAD), respectively."}, "ER535-stop": {"target": "T2, ER535-stop (Homo sapiens, UniProt P03372)", "T2 construct": "mutant ER-535 STOP was truncated after residue V535; expressed in transfected cells", "T2 sequence (P03372 1-534)": "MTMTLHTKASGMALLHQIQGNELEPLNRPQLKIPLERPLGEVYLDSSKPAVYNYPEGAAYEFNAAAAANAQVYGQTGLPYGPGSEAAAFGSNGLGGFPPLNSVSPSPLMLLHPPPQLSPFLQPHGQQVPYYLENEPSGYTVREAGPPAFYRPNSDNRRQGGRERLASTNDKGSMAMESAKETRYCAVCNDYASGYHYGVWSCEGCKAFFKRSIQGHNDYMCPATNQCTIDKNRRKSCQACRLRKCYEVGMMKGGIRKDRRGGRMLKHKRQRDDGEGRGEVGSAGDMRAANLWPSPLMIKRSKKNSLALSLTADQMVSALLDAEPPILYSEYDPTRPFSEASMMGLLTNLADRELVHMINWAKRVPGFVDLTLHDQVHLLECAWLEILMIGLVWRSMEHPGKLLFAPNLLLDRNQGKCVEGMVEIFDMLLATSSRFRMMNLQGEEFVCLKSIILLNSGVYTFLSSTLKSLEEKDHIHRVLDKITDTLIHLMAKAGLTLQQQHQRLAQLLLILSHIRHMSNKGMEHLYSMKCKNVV", "excerpt": "as §1, §2, §3"}, "ERLL (L540A/L541A)": {"target": "T3, ERLL (L540A/L541A) (Homo sapiens, UniProt P03372, L540A/L541A)", "T3 construct": "expressed in transfected cells", "T3 sequence (P03372 1-595 L540A/L541A)": "T1 sequence (P03372 1-595 D538N/E542Q/D545N) with N538D, L540A, L541A, Q542E, N545D", "excerpt": "as §1, §2, §3"}},
  "note": "Substitutions are numbered along the chain they refer to.",
  "data": [
    {"sequence": "SSWDMHQFFWEGVSR [α/β III]", "values": [
      {"measurement": "interaction with the ER3X mutant receptor", "setting": "ER3X (D538N/E542Q/D545N)", "value": "loss of the tamoxifen specificity"},
      {"measurement": "interaction with the ER535-stop mutant receptor", "setting": "ER535-stop", "value": "loss of the tamoxifen specificity"},
      {"measurement": "interaction with the ERLL mutant receptor", "setting": "ERLL (L540A/L541A)", "value": "loss of the tamoxifen specificity"}
    ]},
    {"sequence": "SSNHQSSRLIELLSR [α/β I]", "values": [
      {"measurement": "interaction with the ER3X mutant receptor", "setting": "ER3X (D538N/E542Q/D545N)", "value": "retains some ability to engage"},
      {"measurement": "interaction with the ER535-stop mutant receptor", "setting": "ER535-stop", "value": "unable to interact"},
      {"measurement": "interaction with the ERLL mutant receptor", "setting": "ERLL (L540A/L541A)", "value": "unable to interact"}
    ]},
    {"sequence": "SSPGSREWFKDMLSR [α/β V]", "values": [
      {"measurement": "interaction with the ER3X mutant receptor", "setting": "ER3X (D538N/E542Q/D545N)", "value": "loss of the tamoxifen specificity"},
      {"measurement": "interaction with the ER535-stop mutant receptor", "setting": "ER535-stop", "value": "loss of the tamoxifen specificity"},
      {"measurement": "interaction with the ERLL mutant receptor", "setting": "ERLL (L540A/L541A)", "value": "loss of the tamoxifen specificity"}
    ]},
    {"sequence": "SSLTSRDFGSWYASR [α II]", "values": [
      {"measurement": "interaction with the ER3X mutant receptor", "setting": "ER3X (D538N/E542Q/D545N)", "value": "largely unaffected"},
      {"measurement": "interaction with the ER535-stop mutant receptor", "setting": "ER535-stop", "value": "largely unaffected"},
      {"measurement": "interaction with the ERLL mutant receptor", "setting": "ERLL (L540A/L541A)", "value": "largely unaffected"}
    ]}
  ]
}
